Experimental data: patent publication US20230295635, “DNA APTAMERS FOR EOSINOPHIL PEROXIDASE DETECTION” (McMaster University, published 2023)

B1: EAP2-10 (ssDNA)
DNA: ATGCCATCCTACCAACAGGGAGGGGGCGGTTAGGGAATGGTGGTCCGGGCGGGGTAGAGCTCTGAACTGG
B2: EAP2-40 (ssDNA)
DNA: ATGCCATCCTACCAACCAGGGGGCGCGGGAGGGGGCCTGACGTCGAGGGGGTTGGGGAGCTCTGAACTGG
B3: EAP1-20 (ssDNA)
DNA: ATGCCATCCTACCAACAGCAGCGGGCGGGGGCCAGTGGGGGATGTAGCCGGGGGTGGAGCTCTGAACTGG
B4: EAP2-01 (ssDNA)
DNA: ATGCCATCCTACCAACCGCGGGAGGAGACTGGTGTAGGGGGCATGGGATGGCCTGGGAGCTCTGAACTGG
B5: EAP1-05 (ssDNA)
DNA: ATGCCATCCTACCAACCAGGGGGACAGTGCAAAGGGGTAGGGAGGGGGCTAGGGGGGAGCTCTGAACTGG
B6: EAP2-09 (ssDNA)
DNA: ATGCCATCCTACCAACACGACCGGTGTAGAGGGGGGTATACGGAATGGGGGTTGTGGAGCTCTGAACTGG
B7: EAP1-01 (ssDNA)
DNA: ATGCCATCCTACCAACCACGGGGATCGGGTGGGGGCTAGGCGGCGTGTGCACGGGGGAGCTCTGAACTGG
B8: EAP1-15 (ssDNA)
DNA: ATGCCATCCTACCAACCGGGGGAGCAAGGTGTAGGGGTAGGGGGCCATGCGAGGGGGAGCTCTGAACTGG
B9: EAP1-08 (ssDNA)
DNA: ATGCCATCCTACCAACCAGTTGCCGGTGGGGTGACCCGGTGGGGGAGGGTGTGGGGGAGCTCTGAACTGG
B10: EAP1-05T3BT (ssDNA)
DNA: TTTTTTTTTTATGCCATCCTACCAACCAGGGGGACAGTGCAAAGGGAGCTCTGAACTCG
B11: EAP2-18 (ssDNA)
DNA: ATGCCATCCTACCAACATGGGGATATCCGGCGGGGGCATCAGGGGGGAGTGCGGGTGAGCTCTGAACTGG

Tests used:
[1] = molecular target: T1, Eosinophil peroxidase (EPX) (UniProt P11678;P11678 P11678:140-250,P11678:251-715); assay: EMSA; value only in figure; weaker than EAP1-05; 1x SB pH 9; conditions: tags: Cedarlane #342-60-0.1; untagged commercial protein; label: fluorescent (FAM)
[2] = molecular target: T1, Eosinophil peroxidase (EPX); assay: FP; PBS pH 7.4, room temperature; conditions: tags: Cedarlane #342-60-0.1, untagged commercial protein, label: 5'-FAM
[3] = molecular target: T1, Eosinophil peroxidase (EPX); assay: FP; 0.5x SB, room temperature; conditions: tags: Cedarlane #342-60-0.1; untagged commercial protein; label: 5'-FAM; 3' stem loop
[4] = molecular target: T1, Eosinophil peroxidase (EPX); assay: EMSA; 1x SB (50 mM Tris, 1 M NaCl, 5 mM MgCl2, 2 mM KCl, pH 9), poly(dI-dC); from loss of free aptamer band; conditions: tags: Cedarlane #342-60-0.1; untagged commercial protein; label: 5'-FAM; 3' stem loop
[5] = molecular target: Bovine serum albumin (BSA) (Bos taurus, UniProt P02769 P02769:25-607); assay: pulldown; HB; no TMB signal (BSA has no peroxidase activity); conditions: label: 5'-biotin
Protocol: (§1) EPX pulldown assay: Biotinylated EAP1-05T3 was immobilized on streptavidin-coated agarose beads as follows: 200 µL of streptavidin-coated agarose slurry was transferred into a 1.5 mL Eppendorf tube and washed with 500 µL of 1x HB (50 mM HEPES, 300 mM NaCl, 15 mM MgCl2, 0.01% Tween20, pH 7.5). 1 nmole of biotinylated EAP1-05T3 was added to this slurry and rotated gently for 1 h to bind the aptamers with the beads. The beads were washed 5x with 500 µL of 1x HB each time and finally suspended in 1000 µL of 1x HB and stored at 4° C. until use. 50 µL of this bead slurry was used for each pull-down experiment.
Specificity test: 50 µL of aptamer-conjugated beads from above were aliquoted in each tube and labelled for each experiment: Buffer, EPX, MPO, LPO, TPO and BSA respectively. 1 µM stock of each of protein was made in 1x HB. Next, 1.0 µL of each protein was added to their respected tube and incubated at room temperature for 30 minutes with occasional pipetting for homogeneous binding. Only buffer was added in the control experiment tube that was labelled as buffer. Then the beads were sedimented by brief centrifugation using a benchtop centrifuge and washed 3× using 300 µL 1x HB. Next, the beads were resuspended in 25 µL HB. […] This yellow solution was immediately transferred into 96 well plate and the OD was measured at 450 nm using Tecan plate reader. […]

[6] = molecular target: T1, Eosinophil peroxidase (EPX); assay: pulldown; HB (50 mM HEPES, 300 mM NaCl, 15 mM MgCl2, pH 7.5), TMB signal; LoD 1 nM in buffer, 1.25 nM in sputum; conditions: tags: Cedarlane #342-60-0.1; untagged commercial protein; label: 5'-biotin
Protocol: as §1
Sensitivity test in buffer: EPX stocks of different concentrations (10.0, 5.0, 2.5, 1.25, 0.625, 0.312, 0.156, 0.078, 0.039 and 0.019 µM) were made in 1x HB. Similar to specificity test, 50 µL of aptamer conjugated beads slurry was transferred in each fresh Eppendorf tube (3 tubes for each concentration for triplicate experiments). 1.0 µL of each protein was added to their respected tube and incubated at room temperature for 30 minutes with occasional pipetting for homogeneous binding. Only buffer was added in the control experiment tube that was labelled as buffer. […] This yellow solution was immediately transferred into 96 well plate and the OD was measured at 450 nm using a Tecan plate reader. […]

Myeloperoxidase (MPO) = Myeloperoxidase (MPO) (UniProt P05164;P05164 P05164:165-273,P05164:279-745); assay: pulldown; HB, 1 uM protein; no TMB signal; conditions: tags: Cedarlane #426-10-0.1; untagged commercial protein; chain copies: 2; label: 5'-biotin
Lactoperoxidase (LPO) = Lactoperoxidase (LPO) (UniProt P80025 P80025:101-712); assay: pulldown; HB, 1 uM protein; no TMB signal
[7] = molecular target: T1, Eosinophil peroxidase (EPX); assay: EMSA; 3 nM aptamer, 5 nM EPX; small positive impact of middle deletion; conditions: tags: Cedarlane #342-60-0.1; untagged commercial protein; label: 5'-FAM
Protocol: Next, EAP1-05 was subjected to truncation and deletion experiments to shorten the aptamer and improve its binding ability. The aptamer was truncated by removing various DNA segments (FIG. 2A), and the fraction of aptamer bound to EPX was assessed by EMSA using 3 nM of aptamer and a single EPX concentration of 5 nM and calculating the decrease in free aptamer fluorescence in EMSA gels.

T1 sequence (P11678 140-250, chain 1 of 2): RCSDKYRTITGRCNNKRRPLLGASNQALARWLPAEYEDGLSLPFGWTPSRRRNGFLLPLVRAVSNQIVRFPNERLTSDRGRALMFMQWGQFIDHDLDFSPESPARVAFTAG
T1 sequence (P11678 251-715, chain 2 of 2): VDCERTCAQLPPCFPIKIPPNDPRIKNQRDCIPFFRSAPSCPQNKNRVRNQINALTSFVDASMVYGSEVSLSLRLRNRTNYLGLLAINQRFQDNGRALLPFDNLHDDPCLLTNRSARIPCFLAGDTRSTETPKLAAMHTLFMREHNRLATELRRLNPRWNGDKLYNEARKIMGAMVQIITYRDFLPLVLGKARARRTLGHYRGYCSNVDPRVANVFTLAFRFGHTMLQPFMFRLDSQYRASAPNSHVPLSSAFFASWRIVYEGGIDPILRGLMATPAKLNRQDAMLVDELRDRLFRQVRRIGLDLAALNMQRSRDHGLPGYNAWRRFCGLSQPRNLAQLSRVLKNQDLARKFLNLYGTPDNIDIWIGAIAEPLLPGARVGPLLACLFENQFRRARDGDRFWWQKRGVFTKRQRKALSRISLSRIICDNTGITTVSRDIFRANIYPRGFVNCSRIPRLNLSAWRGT
Sequence of Bovine serum albumin (BSA) (P02769 25-607, one chain of several): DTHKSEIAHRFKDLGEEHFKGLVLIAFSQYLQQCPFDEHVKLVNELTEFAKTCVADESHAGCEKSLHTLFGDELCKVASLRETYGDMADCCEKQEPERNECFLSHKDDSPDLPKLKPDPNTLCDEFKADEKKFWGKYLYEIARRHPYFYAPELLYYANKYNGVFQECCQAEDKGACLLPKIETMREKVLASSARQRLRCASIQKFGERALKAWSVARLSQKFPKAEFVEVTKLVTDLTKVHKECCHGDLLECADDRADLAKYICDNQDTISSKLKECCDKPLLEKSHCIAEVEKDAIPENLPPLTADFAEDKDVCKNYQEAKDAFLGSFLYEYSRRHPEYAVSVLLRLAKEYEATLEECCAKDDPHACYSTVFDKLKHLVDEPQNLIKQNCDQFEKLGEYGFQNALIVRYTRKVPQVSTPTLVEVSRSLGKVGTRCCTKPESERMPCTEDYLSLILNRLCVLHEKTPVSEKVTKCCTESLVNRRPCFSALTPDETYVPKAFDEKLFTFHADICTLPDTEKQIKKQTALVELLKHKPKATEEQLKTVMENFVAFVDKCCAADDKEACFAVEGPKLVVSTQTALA
Sequence of Myeloperoxidase (MPO) (P05164 165-273, chain 1 of 2): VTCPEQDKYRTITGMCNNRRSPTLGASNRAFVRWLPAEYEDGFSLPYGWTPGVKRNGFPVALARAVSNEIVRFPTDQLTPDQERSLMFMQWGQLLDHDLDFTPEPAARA
Sequence of Myeloperoxidase (MPO) (P05164 279-745, chain 2 of 2): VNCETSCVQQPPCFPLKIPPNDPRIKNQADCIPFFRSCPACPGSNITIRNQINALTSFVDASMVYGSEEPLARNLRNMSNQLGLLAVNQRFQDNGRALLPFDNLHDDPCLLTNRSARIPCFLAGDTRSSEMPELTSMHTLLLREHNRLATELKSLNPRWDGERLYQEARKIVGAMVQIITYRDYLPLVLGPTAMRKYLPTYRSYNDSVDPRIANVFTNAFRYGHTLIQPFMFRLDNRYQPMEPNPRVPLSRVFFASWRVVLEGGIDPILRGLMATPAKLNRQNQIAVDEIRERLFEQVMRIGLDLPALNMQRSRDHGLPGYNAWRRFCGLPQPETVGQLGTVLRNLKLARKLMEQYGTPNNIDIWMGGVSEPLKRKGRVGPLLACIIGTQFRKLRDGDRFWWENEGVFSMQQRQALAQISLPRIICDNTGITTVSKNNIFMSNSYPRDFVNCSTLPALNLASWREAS

| Binder | binding result [1] | also measured |
| --- | --- | --- |
| B1 | binds |  |
| B2 | binds |  |
| ATGCCATCCTACCAACCAGGGGGACAGTGCAAAGGGAGCTCTGAACTCG (ssDNA) [EAP1-05T3] |  | Kd [2]: 4.8 nM |
| B3 | binds |  |
| B4 | binds |  |
| B5 |  | Kd [3]: 36.6 nM; Kd ([2]; 3' stem loop): 4.3 nM; Kd [4]: 9.2 nM |
| B6 | binds |  |
| B7 | binds |  |
| B8 | binds |  |
| B9 | binds |  |
| B10 |  | binding result [5]: no binding; binding result [6]: binds; binding result (Myeloperoxidase (MPO)): no binding; binding result (Lactoperoxidase (LPO)): no binding |
| B11 | binds |  |
| ATGCCATCCTACCAATAGGGAGGGGGCTAGGGGGGAGCTCTGAACTCG (ssDNA) [EAP1-05T2] |  | binding result [7]: binds |
